Assay results from patent publication US20020012949A1, “Assay systems for leptin-enhancing agents” (priority 1997, published 2002).

Molecular target: T1, OB-R (Homo sapiens, UniProt P48357)
T1 construct: The cytoplasmic domain and full-length human OB-R was cloned by PCR; expressed in transfected cells; host or cells: COS-7
T1 sequence (P48357 22-1165): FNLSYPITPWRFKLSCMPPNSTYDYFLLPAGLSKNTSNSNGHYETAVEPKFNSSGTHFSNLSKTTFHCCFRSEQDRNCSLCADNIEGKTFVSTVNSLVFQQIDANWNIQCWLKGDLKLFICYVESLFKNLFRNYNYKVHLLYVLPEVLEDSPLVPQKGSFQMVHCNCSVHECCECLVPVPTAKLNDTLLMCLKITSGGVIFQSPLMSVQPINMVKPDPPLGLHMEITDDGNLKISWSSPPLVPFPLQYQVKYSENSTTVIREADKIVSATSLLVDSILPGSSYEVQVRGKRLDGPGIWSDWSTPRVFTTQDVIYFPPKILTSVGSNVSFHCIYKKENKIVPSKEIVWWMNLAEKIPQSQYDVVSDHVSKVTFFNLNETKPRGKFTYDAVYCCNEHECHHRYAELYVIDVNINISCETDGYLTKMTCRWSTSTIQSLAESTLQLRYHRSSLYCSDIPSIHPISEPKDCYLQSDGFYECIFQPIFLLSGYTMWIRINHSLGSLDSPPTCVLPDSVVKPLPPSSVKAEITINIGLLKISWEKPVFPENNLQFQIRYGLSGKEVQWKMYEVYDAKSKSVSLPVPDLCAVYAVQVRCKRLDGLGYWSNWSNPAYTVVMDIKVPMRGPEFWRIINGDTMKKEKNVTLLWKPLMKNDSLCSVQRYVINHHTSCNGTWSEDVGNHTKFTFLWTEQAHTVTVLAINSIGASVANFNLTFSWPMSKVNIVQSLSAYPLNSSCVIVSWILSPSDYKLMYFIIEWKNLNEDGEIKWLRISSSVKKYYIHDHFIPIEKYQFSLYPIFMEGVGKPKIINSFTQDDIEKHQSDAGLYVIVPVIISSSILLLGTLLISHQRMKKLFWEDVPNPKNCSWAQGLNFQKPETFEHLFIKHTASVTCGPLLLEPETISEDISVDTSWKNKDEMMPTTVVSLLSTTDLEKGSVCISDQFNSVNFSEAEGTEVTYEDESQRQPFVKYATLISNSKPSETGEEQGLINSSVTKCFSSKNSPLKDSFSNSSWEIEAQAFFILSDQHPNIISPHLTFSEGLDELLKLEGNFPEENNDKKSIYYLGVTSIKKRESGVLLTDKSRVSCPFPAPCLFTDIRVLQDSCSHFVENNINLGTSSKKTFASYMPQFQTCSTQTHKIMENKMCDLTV
Assay: Luciferase reporter gene assay (3(G3)-Cy6-LUC), leptin stimulation of COS cells expressing wild type OB-R
Type: cell-based
Conditions: 100 ng/ml leptin for 24 hours, stimulated vs non-stimulated
Experimental: The cytoplasmic domain and full-length human OB-R was cloned by PCR using human fetal liver and adipocyte cDNA (Clontech) and cloned into the expression vectors pCMX and pMT21. Chimeric receptors were constructed by fusing the extracellular domain and transmembrane domain of TrkC (amino acids 1 to 458) to the cytoplasmic domain of OB-R (amino acids 865-1165). A triple myc epitope tag was added at the C-terminus of all OB-R constructs (18). Truncation and point mutant constructs were generated by PCR and the sequences of all constructs were verified. Expression constructs were transfected into COS-7 cells using lipofectamine (GIBCO-BRL); 36-48 hours after transfection, cells were starved for either 2 hour,s for chimeric receptors or overnight for full-length receptors prior to stimulation.
Expression constructs (1 μg) for OB-R, OB-RY1141F, OB-RY986F, OB-RY1078, 1079F, and OB-RY986, 1141F were co-transfected with 1 μg of 3(G3)-Cy6-LUC and 0.1 μg of pCMX.LacZ into COS-7 cells (6-well dishes) using lipofectamine. The day after transfection, media was changed to serum-free OptiMEM (GIBCO-BRL) and then treated with 100 ng/ml murine leptin (PeproTech) or human leptin (R&D Systems) for 24 hours. […] Luciferase and β-galactosidase activities were measured in cell lysates (30) and luciferase activity was normalized to β-galactosidase activity to control for transfection differences. […]

induction of luciferase activity: 6 fold
Substance: leptin: the product of the obese gene, secreted by adipocytes; ligand of OB-R
